# Assay results published in publication PMC5384650.
# B1: pantothenate synthetase (PanC) (Salmonella enterica subsp. enterica serovar Typhimurium str. LT2) (protein)
# chain: MLIIETLPLLRQHIRRLRQEGKRVALVPTMGNLHDGHMKLVDEAKARADVVIVSIFVNPMQFDRPDDLVRYPRTLQEDCEKLNKRKVDYVFAPAVEEIYPHGLEGQTYVDVPGLSTMLEGASRPGHFRGVSTIVSKLFNLIQPDIACFGEKDFQQLALIRKMVADMSYDIEIVGVPIIRAKDGLALSSRNAYLTAEQRKIAPGLYNVMNSIAEKLIAGNRELQEIIAIAEQELNEKGFRADDIQIRDADTLLELTETSKRAVILAAAWLGQARLIDNQSVTLAQ
# Substrate: NC[C@H](N)C(=O)O
# Test: coupled NADH oxidation assay
# Assay type: biochemical, Salmonella enterica
# Conditions: ATP, Mg2+ used in place of beta-alanine
protein,measurement,value
B1,Km,8.1 mM
